Experimental data taken from the supplement of paper PMC10065799, “High-throughput profiling of sequence recognition by tyrosine kinases and SH2 domains using bacterial peptide display” (eLife, 2023).

Tested on: c-Abl (mouse)
Assay: phosphorylation enrichment, bacterial display (enrichment ratio); higher = better substrate or ligand; peptides without Tyr show the background
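Further: 11-residue human phosphosite peptides and single-mutation variants displayed on the E. coli surface, counted by deep sequencing, each peptide's frequency after selection divided by its frequency in the unselected input library; frequency after pTyr selection over input frequency; kinase dosed for 20-30% of maximal phosphorylation in three min.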

Q: Which phosphorylation enrichment does the source give for ILGLEYSLRVP [HELZ2_Y1304] here?
A: Its phosphorylation enrichment is 0.753.

Q: LWEGSYGKVKE [STK11_Y60_G56W] was tested. Which phosphorylation enrichment did it give?
A: The phosphorylation enrichment was 0.69.

Q: LANNEYYFQVC was tested. Which phosphorylation enrichment did it give?
A: Its phosphorylation enrichment is 1.02.

Q: How did the phosphorylation enrichment turn out when VVIVLYFSLWK [SLC6A2_Y249] was run?
A: The phosphorylation enrichment was 0.942.

Q: Which phosphorylation enrichment does the source give for SEPDLYFDPRG [PKP1_Y160_C161Y_YF] here?
A: The phosphorylation enrichment was 2.71.

Q: How did the phosphorylation enrichment turn out when AEFGLYAAMVR [VSX2_Y222_G223A_YF] was run?
A: The phosphorylation enrichment was 1.09.

Q: How did the phosphorylation enrichment turn out when KELAKYYKLHH [AK7_Y390_N389K] was run?
A: The phosphorylation enrichment was 0.46.

Q: For YIPSNYVAEDR [FRK_Y104], which phosphorylation enrichment is on record?
A: Its phosphorylation enrichment is 0.685.

Q: Which phosphorylation enrichment does the source give for FCRITYDIFPF [INTS13_Y67_M66T_YF] here?
A: The phosphorylation enrichment was 1.12.

Q: How did the phosphorylation enrichment turn out when SYCYRYRCAPR [SUMF1_Y344_A348P] was run?
A: Its phosphorylation enrichment is 0.493.

Q: With CTTIHYNYMCH [TP53_Y234_N239H] as the sequence, how does the phosphorylation enrichment read?
A: Its phosphorylation enrichment is 0.581.

Q: With TLEKYYFAFPG [SLC1A1_Y51_F50Y] as the sequence, how does the phosphorylation enrichment read?
A: Its phosphorylation enrichment is 9.74.

Q: How did the phosphorylation enrichment turn out when TINPIHEHVGF [CHN1_Y143_Y143H_YF] was run?
A: The phosphorylation enrichment was 0.477.

Q: How did the phosphorylation enrichment turn out when IHFAIYLLKYS [ARMC9_Y107] was run?
A: The phosphorylation enrichment was 0.753.

Q: For NTGDYCDLYGG [PTPN11_Y63_Y63C], which phosphorylation enrichment is on record?
A: The phosphorylation enrichment was 0.877.

Q: For QCTSDYPEHVC [SART3_Y541], which phosphorylation enrichment is on record?
A: Its phosphorylation enrichment is 1.23.

Molecular target: Fyn (UniProt P06241)
Assay: as above

Sequence of Fyn (P06241 whole entry, looked up): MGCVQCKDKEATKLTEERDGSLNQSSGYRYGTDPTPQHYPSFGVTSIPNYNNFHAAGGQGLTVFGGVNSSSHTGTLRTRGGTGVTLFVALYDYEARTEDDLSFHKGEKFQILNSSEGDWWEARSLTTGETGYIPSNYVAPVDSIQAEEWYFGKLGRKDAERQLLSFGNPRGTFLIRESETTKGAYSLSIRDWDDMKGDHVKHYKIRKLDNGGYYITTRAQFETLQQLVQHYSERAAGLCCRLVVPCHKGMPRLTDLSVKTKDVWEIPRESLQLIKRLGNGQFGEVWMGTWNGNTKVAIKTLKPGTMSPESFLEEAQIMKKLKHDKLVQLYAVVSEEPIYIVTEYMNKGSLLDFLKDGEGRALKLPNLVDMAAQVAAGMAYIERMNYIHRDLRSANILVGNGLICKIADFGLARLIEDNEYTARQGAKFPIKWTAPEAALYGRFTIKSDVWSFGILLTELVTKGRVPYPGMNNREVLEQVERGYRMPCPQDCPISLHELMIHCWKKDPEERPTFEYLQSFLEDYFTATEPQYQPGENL

Q: For ILGLEYSLRVP [HELZ2_Y1304], which phosphorylation enrichment is on record?
A: Its phosphorylation enrichment is 0.515.

Q: How did the phosphorylation enrichment turn out when LWEGSYGKVKE [STK11_Y60_G56W] was run?
A: The phosphorylation enrichment was 0.623.

Q: LANNEYYFQVC was tested. Which phosphorylation enrichment did it give?
A: The phosphorylation enrichment was 1.43.

Q: For VVIVLYFSLWK [SLC6A2_Y249], which phosphorylation enrichment is on record?
A: The phosphorylation enrichment was 0.241.

Q: SEPDLYFDPRG [PKP1_Y160_C161Y_YF] was tested. Which phosphorylation enrichment did it give?
A: Its phosphorylation enrichment is 4.59.

Q: Which phosphorylation enrichment does the source give for AEFGLYAAMVR [VSX2_Y222_G223A_YF] here?
A: Its phosphorylation enrichment is 2.44.

Q: For KELAKYYKLHH [AK7_Y390_N389K], which phosphorylation enrichment is on record?
A: The phosphorylation enrichment was 0.35.

Q: How did the phosphorylation enrichment turn out when YIPSNYVAEDR [FRK_Y104] was run?
A: The phosphorylation enrichment was 0.523.

Q: FCRITYDIFPF [INTS13_Y67_M66T_YF] was tested. Which phosphorylation enrichment did it give?
A: The phosphorylation enrichment was 1.31.

Q: For SYCYRYRCAPR [SUMF1_Y344_A348P], which phosphorylation enrichment is on record?
A: Its phosphorylation enrichment is 0.436.

Q: CTTIHYNYMCH [TP53_Y234_N239H] was tested. Which phosphorylation enrichment did it give?
A: Its phosphorylation enrichment is 0.449.

Q: How did the phosphorylation enrichment turn out when TLEKYYFAFPG [SLC1A1_Y51_F50Y] was run?
A: Its phosphorylation enrichment is 4.5.

Q: TINPIHEHVGF [CHN1_Y143_Y143H_YF] was tested. Which phosphorylation enrichment did it give?
A: The phosphorylation enrichment was 0.335.

Q: Which phosphorylation enrichment does the source give for IHFAIYLLKYS [ARMC9_Y107] here?
A: The phosphorylation enrichment was 0.516.

Q: With NTGDYCDLYGG [PTPN11_Y63_Y63C] as the sequence, how does the phosphorylation enrichment read?
A: Its phosphorylation enrichment is 2.26.

Q: QCTSDYPEHVC [SART3_Y541] was tested. Which phosphorylation enrichment did it give?
A: The phosphorylation enrichment was 0.605.

Molecular target: EPHB2 (UniProt P29323)
Assay: as above

Sequence of EPHB2 (P29323 whole entry, looked up): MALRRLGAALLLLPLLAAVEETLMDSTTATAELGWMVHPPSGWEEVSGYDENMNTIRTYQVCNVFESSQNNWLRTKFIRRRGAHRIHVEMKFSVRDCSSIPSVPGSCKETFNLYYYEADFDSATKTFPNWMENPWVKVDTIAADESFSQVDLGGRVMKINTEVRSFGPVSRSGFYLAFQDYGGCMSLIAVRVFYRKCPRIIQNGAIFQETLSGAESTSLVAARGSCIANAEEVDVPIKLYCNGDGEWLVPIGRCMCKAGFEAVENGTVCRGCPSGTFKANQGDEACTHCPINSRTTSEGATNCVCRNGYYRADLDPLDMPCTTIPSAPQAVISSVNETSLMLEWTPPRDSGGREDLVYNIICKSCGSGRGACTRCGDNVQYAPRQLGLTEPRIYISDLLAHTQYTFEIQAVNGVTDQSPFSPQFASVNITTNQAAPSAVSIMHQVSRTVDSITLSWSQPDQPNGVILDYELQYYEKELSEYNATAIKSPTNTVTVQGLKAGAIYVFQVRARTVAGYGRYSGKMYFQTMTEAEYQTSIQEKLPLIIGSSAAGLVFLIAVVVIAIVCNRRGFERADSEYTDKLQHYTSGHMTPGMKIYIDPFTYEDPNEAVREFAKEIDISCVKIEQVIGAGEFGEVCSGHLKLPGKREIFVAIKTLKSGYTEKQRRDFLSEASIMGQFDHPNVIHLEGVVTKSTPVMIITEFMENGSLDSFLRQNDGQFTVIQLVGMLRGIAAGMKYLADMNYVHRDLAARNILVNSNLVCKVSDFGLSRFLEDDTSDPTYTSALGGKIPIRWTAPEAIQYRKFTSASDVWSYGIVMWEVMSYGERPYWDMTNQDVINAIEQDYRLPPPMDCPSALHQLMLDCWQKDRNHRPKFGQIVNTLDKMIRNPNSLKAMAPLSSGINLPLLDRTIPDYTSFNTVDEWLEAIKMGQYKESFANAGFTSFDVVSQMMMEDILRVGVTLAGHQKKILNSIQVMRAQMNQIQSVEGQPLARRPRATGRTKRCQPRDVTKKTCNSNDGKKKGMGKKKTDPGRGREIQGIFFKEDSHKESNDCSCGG

Q: Which phosphorylation enrichment does the source give for ILGLEYSLRVP [HELZ2_Y1304] here?
A: Its phosphorylation enrichment is 0.733.

Q: Which phosphorylation enrichment does the source give for LWEGSYGKVKE [STK11_Y60_G56W] here?
A: Its phosphorylation enrichment is 0.491.

Q: For LANNEYYFQVC, which phosphorylation enrichment is on record?
A: The phosphorylation enrichment was 1.56.

Q: VVIVLYFSLWK [SLC6A2_Y249] was tested. Which phosphorylation enrichment did it give?
A: The phosphorylation enrichment was 0.453.

Q: Which phosphorylation enrichment does the source give for SEPDLYFDPRG [PKP1_Y160_C161Y_YF] here?
A: Its phosphorylation enrichment is 11.4.

Q: For AEFGLYAAMVR [VSX2_Y222_G223A_YF], which phosphorylation enrichment is on record?
A: The phosphorylation enrichment was 2.14.

Q: Which phosphorylation enrichment does the source give for KELAKYYKLHH [AK7_Y390_N389K] here?
A: The phosphorylation enrichment was 0.363.

Q: For YIPSNYVAEDR [FRK_Y104], which phosphorylation enrichment is on record?
A: Its phosphorylation enrichment is 0.623.

Q: For FCRITYDIFPF [INTS13_Y67_M66T_YF], which phosphorylation enrichment is on record?
A: Its phosphorylation enrichment is 3.05.

Q: Which phosphorylation enrichment does the source give for SYCYRYRCAPR [SUMF1_Y344_A348P] here?
A: The phosphorylation enrichment was 0.418.

Q: How did the phosphorylation enrichment turn out when CTTIHYNYMCH [TP53_Y234_N239H] was run?
A: The phosphorylation enrichment was 0.761.

Q: How did the phosphorylation enrichment turn out when TLEKYYFAFPG [SLC1A1_Y51_F50Y] was run?
A: Its phosphorylation enrichment is 11.1.

Q: TINPIHEHVGF [CHN1_Y143_Y143H_YF] was tested. Which phosphorylation enrichment did it give?
A: Its phosphorylation enrichment is 0.346.

Q: Which phosphorylation enrichment does the source give for IHFAIYLLKYS [ARMC9_Y107] here?
A: Its phosphorylation enrichment is 0.59.

Q: With NTGDYCDLYGG [PTPN11_Y63_Y63C] as the sequence, how does the phosphorylation enrichment read?
A: The phosphorylation enrichment was 11.3.

Q: With QCTSDYPEHVC [SART3_Y541] as the sequence, how does the phosphorylation enrichment read?
A: Its phosphorylation enrichment is 0.523.

Molecular target: MERTK (UniProt Q12866)
Assay: as above

Sequence of MERTK (Q12866 whole entry, looked up): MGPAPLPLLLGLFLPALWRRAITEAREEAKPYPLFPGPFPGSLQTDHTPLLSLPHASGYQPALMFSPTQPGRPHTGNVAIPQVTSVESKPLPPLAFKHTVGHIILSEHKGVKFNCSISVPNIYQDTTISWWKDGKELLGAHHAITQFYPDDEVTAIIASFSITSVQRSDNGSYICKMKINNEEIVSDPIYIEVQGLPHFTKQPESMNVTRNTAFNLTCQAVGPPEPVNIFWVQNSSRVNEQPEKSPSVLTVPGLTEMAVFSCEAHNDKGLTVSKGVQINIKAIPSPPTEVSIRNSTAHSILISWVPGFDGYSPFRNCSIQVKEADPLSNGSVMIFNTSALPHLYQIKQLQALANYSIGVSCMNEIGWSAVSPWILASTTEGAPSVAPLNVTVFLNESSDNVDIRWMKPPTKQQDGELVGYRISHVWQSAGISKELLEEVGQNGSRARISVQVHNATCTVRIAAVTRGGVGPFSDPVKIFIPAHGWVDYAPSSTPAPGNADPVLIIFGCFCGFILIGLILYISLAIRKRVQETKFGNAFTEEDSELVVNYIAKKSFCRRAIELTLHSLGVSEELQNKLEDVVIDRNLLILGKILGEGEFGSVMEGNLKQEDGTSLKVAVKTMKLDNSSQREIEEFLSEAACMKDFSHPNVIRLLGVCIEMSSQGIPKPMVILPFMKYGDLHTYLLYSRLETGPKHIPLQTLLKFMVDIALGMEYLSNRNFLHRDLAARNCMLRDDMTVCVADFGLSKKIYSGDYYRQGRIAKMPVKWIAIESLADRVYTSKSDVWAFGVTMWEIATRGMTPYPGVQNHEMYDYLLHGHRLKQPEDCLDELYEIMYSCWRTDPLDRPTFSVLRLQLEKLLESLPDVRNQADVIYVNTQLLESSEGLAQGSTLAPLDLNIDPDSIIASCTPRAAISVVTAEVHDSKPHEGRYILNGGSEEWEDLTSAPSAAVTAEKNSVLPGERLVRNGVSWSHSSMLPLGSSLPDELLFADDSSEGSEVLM

Q: How did the phosphorylation enrichment turn out when ILGLEYSLRVP [HELZ2_Y1304] was run?
A: Its phosphorylation enrichment is 0.431.

Q: Which phosphorylation enrichment does the source give for LWEGSYGKVKE [STK11_Y60_G56W] here?
A: Its phosphorylation enrichment is 0.509.

Q: LANNEYYFQVC was tested. Which phosphorylation enrichment did it give?
A: The phosphorylation enrichment was 2.08.

Q: VVIVLYFSLWK [SLC6A2_Y249] was tested. Which phosphorylation enrichment did it give?
A: Its phosphorylation enrichment is 0.39.

Q: How did the phosphorylation enrichment turn out when SEPDLYFDPRG [PKP1_Y160_C161Y_YF] was run?
A: The phosphorylation enrichment was 4.69.

Q: How did the phosphorylation enrichment turn out when AEFGLYAAMVR [VSX2_Y222_G223A_YF] was run?
A: The phosphorylation enrichment was 2.69.

Q: KELAKYYKLHH [AK7_Y390_N389K] was tested. Which phosphorylation enrichment did it give?
A: The phosphorylation enrichment was 0.422.

Q: YIPSNYVAEDR [FRK_Y104] was tested. Which phosphorylation enrichment did it give?
A: Its phosphorylation enrichment is 0.535.

Q: With FCRITYDIFPF [INTS13_Y67_M66T_YF] as the sequence, how does the phosphorylation enrichment read?
A: The phosphorylation enrichment was 2.2.

Q: How did the phosphorylation enrichment turn out when SYCYRYRCAPR [SUMF1_Y344_A348P] was run?
A: The phosphorylation enrichment was 0.458.

Q: How did the phosphorylation enrichment turn out when CTTIHYNYMCH [TP53_Y234_N239H] was run?
A: Its phosphorylation enrichment is 0.407.

Q: For TLEKYYFAFPG [SLC1A1_Y51_F50Y], which phosphorylation enrichment is on record?
A: Its phosphorylation enrichment is 11.5.

Q: For TINPIHEHVGF [CHN1_Y143_Y143H_YF], which phosphorylation enrichment is on record?
A: Its phosphorylation enrichment is 0.328.

Q: With IHFAIYLLKYS [ARMC9_Y107] as the sequence, how does the phosphorylation enrichment read?
A: Its phosphorylation enrichment is 0.425.

Q: With NTGDYCDLYGG [PTPN11_Y63_Y63C] as the sequence, how does the phosphorylation enrichment read?
A: The phosphorylation enrichment was 0.838.

Q: For QCTSDYPEHVC [SART3_Y541], which phosphorylation enrichment is on record?
A: The phosphorylation enrichment was 0.565.
